Experimental data reported in patent publication US20260028389A1 (BIOCRYST PHARMACEUTICALS, published 2026).
Positions count from the first letter of the chain named. Names may count otherwise.

T1: rhKLK14 (human, UniProt Q9P0G3 25-251)
T1 sequence (looked up): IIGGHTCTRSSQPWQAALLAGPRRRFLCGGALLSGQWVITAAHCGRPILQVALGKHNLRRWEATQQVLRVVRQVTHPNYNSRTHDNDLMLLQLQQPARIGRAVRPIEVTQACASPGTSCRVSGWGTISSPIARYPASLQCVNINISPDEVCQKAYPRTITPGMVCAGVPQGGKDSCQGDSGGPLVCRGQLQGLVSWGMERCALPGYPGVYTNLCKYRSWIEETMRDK

B1: SPINK9-112.2K62G.Fc (SEQ ID NO: 76) (Fc fusion)
chain: IECAKQTKQMVDCSHYKKLPPEQELYCTREYDPICGSDGKTYGNDCFFCSKVKKTDGTLKFVHFGKCEPKSCDKTHTCPPCPAPEAAGGPSVFLFPPKPKDTLYITREPEVTCVVVDVSHEDPEVKFNWYVDGVEVHNAKTKPREEQYNSTYRVVSVLTVLHQDWLNGKEYKCKVSNKALPAPIEKTISKAKGQPREPQVYTLPPSREEMTKNQVSLTCLVKGFYPSDIAVEWESNGQPENNYKTTPPVLDSDGSFFLYSKLTVDKSRWQQGNVFSCSVMHEALHNHYTQKSLSLSPGK
notes: Mutant SPINK9 domain fused directly to a C-terminal IgG Fc
B2: Spink9-112.K62G.Fc (SEQ ID NO: 56) (Fc fusion)
chain: B1 chain with Y104M, T106S, E108T, M280L, N286S
notes: as for B1
B3: Spink9-30.Fc (SEQ ID NO: 55) (Fc fusion)
chain: B1 chain with E24V, L25S, Y26W, G43K, Y104M, T106S, E108T, M280L, N286S
notes: as for B1
B4: Spink9-183.Fc (SEQ ID NO: 57) (Fc fusion)
chain: B1 chain with E22Q, E24Q, L25A, E30D, G43K, Y104M, T106S, E108T, M280L, N286S
notes: as for B1
B5: Spink9-186.Fc (SEQ ID NO: 58) (Fc fusion)
chain: B1 chain with E22A, E24L, L25I, R29K, G43K, Y104M, T106S, E108T, M280L, N286S
notes: as for B1
B6: Spink9-236.Fc (SEQ ID NO: 60) (Fc fusion)
chain: B1 chain with E24Q, Y26M, G43K, Y104M, T106S, E108T, M280L, N286S
notes: as for B1
B7: Spink9 WT (Fc fusion)
chain: IECAKQTKQMVDCSHYKKLPPGQQRFCHHMYDPICGSDGKTYKNDCFFCSKVKKTDGTLKFVHFGKC
notes: not shown: The C-terminal IgG Fc fragment of the wild-type fusion

molecular target: T2, recombinant human KLK5 C-6His (Novoprotein, Catalog No. C415) (human, UniProt Q9Y337 23-293); assay: ELISA, KLK5 C-6His captured by anti-His mAb; binder incubated in human serum, day 7
T2 construct: Bought protein; also called KLK5 protein (Novoprotein); not shown: C-terminal 6xHis tag ('C-6His')

B1 gave an EC50 of 0.11 nM.

molecular target: KLK5 (UniProt Q9Y337 67-293, limits assumed); assay: cell-based or functional assay

With Wild Type Spink9 (SEQ ID NO: 2) the IC50 of KLK5 enzymatic activity, pH 5.5 was 685 nM.

In the case of Wild Type Spink9 (SEQ ID NO: 2), the IC50 of KLK5 enzymatic activity, pH 7.5 is reported as 80 nM.

Going from B2 to B3, the “KLK5 IC50 nM pH 5.5 (enzymatic activity)” value rises from 0.9 nM to 2.4 nM.

Going from B4 to B5, the “KLK5 IC50 nM pH 5.5 (enzymatic activity)” value rises from 3 nM to 8.3 nM.

For B6, the “KLK5 IC50 nM pH 5.5 (enzymatic activity)” value was 3.5 nM.

First: B2
Second: B3
The “KLK5 IC50 nM pH 7.5 (enzymatic activity)” value of the first is lower: 1.1 nM for the first, 2.2 nM for the second.

Going from B4 to B5, the “KLK5 IC50 nM pH 7.5 (enzymatic activity)” value rises from 1.4 nM to 1.9 nM.

For B6, the “KLK5 IC50 nM pH 7.5 (enzymatic activity)” value was 1.5 nM.

molecular target: T2, recombinant human KLK5 C-6His …; assay: ELISA on captured KLK5 C-6His; binder incubated in human serum, day 0

B2 and B3 are within 1.5-fold of each other in EC50: 0.1 nM for the first, 0.08 nM for the second.

B4 and B5 are within 1.5-fold of each other in EC50: 0.07 nM for the first, 0.09 nM for the second.

B6 showed an EC50 of 0.05 nM.

molecular target: T2, recombinant human KLK5 C-6His …; assay: ELISA, KLK5 C-6His captured by anti-His mAb; binder incubated in human serum, day 1

For B1, the EC50 was 0.059 nM.

molecular target: T2, recombinant human KLK5 C-6His …; assay: ELISA on captured KLK5 C-6His; binder incubated in human serum, day 7

Compared with B2, B3 is 1.7-fold lower in EC50: 0.17 nM for the first, 0.1 nM for the second. The second is the more potent here.

B4 and B5 are within 1.5-fold of each other in EC50: 0.11 nM for the first, 0.12 nM for the second.

Work on B6 yielded an EC50 of 0.1 nM.

molecular target: T2, recombinant human KLK5 C-6His …; assay: ELISA, KLK5 C-6His captured by anti-His mAb; binder incubated in human serum, day 14

B1 gave an EC50 of 0.065 nM.

molecular target: T2, recombinant human KLK5 C-6His …; assay: ELISA on captured KLK5 C-6His; binder incubated in human serum, day 4

First: B2
Second: B3
The EC50 of the first is 1.6-fold higher: 0.16 nM for the first, 0.1 nM for the second. The second is the more potent here.

Compared with B4, B5 is 1.8-fold higher in EC50: 0.12 nM for the first, 0.21 nM for the second. The first is the more potent here.

Work on B6 yielded an EC50 of 0.12 nM.

molecular target: T2, recombinant human KLK5 C-6His …; assay: ELISA on captured KLK5 C-6His; binder incubated in human serum, day 14

B2 and B3 are within 1.5-fold of each other in EC50: 0.17 nM for the first, 0.13 nM for the second.

First: B4
Second: B5
The EC50 of the first is 2.9-fold lower: 0.1 nM for the first, 0.29 nM for the second.

Work on B6 yielded an EC50 of 0.11 nM.

molecular target: T2, recombinant human KLK5 C-6His …; assay: ELISA on captured KLK5 C-6His; binder incubated in human serum, day 1

B2 and B3 are within 1.5-fold of each other in EC50: 0.14 nM for the first, 0.1 nM for the second.

Compared with B4, B5 is 1.8-fold higher in EC50: 0.09 nM for the first, 0.16 nM for the second.

Work on B6 yielded an EC50 of 0.08 nM.

molecular target: T2, recombinant human KLK5 C-6His …; assay: SPR Biacore T200, polypeptide captured by anti-human IgG Fc, KLK5 as analyte, pH 7.4, steady state affinity fit

Compared with B3, B4 is 4.2-fold lower in Kd: 0.0909 nM for the first, 0.0216 nM for the second. The second binds more tightly here.

First: B5
Second: B6
The Kd of the first is 1.5-fold lower: 0.0189 nM for the first, 0.0291 nM for the second.

Molecule B7 has a Kd of 99 nM.

molecular target: T2, recombinant human KLK5 C-6His …; assay: ELISA, KLK5 C-6His captured by anti-His mAb; binder incubated in human serum, day 4

B1 gave an EC50 of 0.08 nM.

molecular target: T3, human FcRn (AcrobioSystems; Catalog No: FCM-H5286) (human, UniProt P55899 24-297; P61769 21-119); assay: SPR Biacore 8K, polypeptide coupled to CM5 chip, human FcRn as analyte, pH 6.0, steady state affinity fit
T3 construct: Bought protein
T3 sequence (P55899 24-297 limits assumed, chain 1 of 2): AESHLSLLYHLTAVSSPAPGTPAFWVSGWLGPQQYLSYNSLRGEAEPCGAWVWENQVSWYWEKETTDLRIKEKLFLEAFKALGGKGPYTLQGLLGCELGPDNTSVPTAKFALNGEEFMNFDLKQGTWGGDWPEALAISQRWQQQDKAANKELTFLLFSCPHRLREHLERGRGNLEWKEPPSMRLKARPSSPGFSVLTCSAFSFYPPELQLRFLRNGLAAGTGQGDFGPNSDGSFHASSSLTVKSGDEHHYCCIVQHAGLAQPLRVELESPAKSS
T3 sequence (P61769 21-119 limits assumed, chain 2 of 2): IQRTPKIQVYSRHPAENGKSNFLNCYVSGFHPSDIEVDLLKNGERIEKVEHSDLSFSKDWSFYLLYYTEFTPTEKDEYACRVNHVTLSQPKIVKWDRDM

B2 and B1 are within 1.5-fold of each other in Kd: 233 nM for the first, 189 nM for the second.

B3 and B4 are within 1.5-fold of each other in Kd: 229 nM for the first, 222 nM for the second.

B5 and B6 are within 1.5-fold of each other in Kd: 232 nM for the first, 231 nM for the second.

molecular target: rhKLK7 (human, UniProt P49862 30-253); assay: cell-based or functional assay
Sequence (P49862 30-253): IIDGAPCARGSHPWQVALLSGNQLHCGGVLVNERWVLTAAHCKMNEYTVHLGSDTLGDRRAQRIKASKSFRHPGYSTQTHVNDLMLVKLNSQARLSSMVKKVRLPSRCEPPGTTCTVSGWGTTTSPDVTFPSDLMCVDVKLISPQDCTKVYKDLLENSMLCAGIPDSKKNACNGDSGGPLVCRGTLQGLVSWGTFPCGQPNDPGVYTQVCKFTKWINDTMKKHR

Going from B2 to B3, the “KLK7 IC50 (nM) pH 7.5 (enzymatic activity)” value (“KLK7 IC50” below) rises from 2.4 nM to 10.8 nM.

First: B4
Second: B5
The “KLK7 IC50” value of the first is lower: 5.4 nM for the first, 8.3 nM for the second.

In the case of B6, the “KLK7 IC50” value is reported as 43.6 nM.

molecular target: T1, rhKLK14; assay: cell-based or functional assay

With B2 the “KLK14 IC50 (nM) pH 8.0 (enzymatic activity)” value was 246 nM.

B3 and B4 are the same in “KLK14, percent inhibition at 316 nM SPINK9 polypeptide, pH 8.0” value: 0% for the first, 0% for the second.

B5 and B6 are the same in “KLK14, percent inhibition at 316 nM SPINK9 polypeptide, pH 8.0” value: 0% for the first, 0% for the second.

molecular target: T2, recombinant human KLK5 C-6His …; assay: ELISA, KLK5 C-6His captured by anti-His mAb; binder incubated in human serum, day 0

B1 was tested, and the EC50 was 0.06 nM.

molecular target: human FcRn (AcrobioSystems; Catalog No: FCM-H5286) (human) (UniProt P55899); assay: SPR Biacore 8K, antibody coupled to CM5 chip, human FcRn as analyte, pH 6.0, steady state affinity fit
Sequence (P55899 24-297 limits assumed, chain 1 of 2): as the sequence (P55899 24-297 limits assumed, chain 1 of 2) above
Sequence (P61769 21-119 limits assumed, chain 2 of 2, further chain): as the sequence (P61769 21-119 limits assumed, chain 2 of 2) above

For Rituximab (Roche) (antibody), the Kd was 3100 nM.
